Results from PMC9813255, “PQBP5/NOL10 maintains and anchors the nucleolus under physiological and osmotic stress conditions” (Nature Communications, 2023).

Target: T1, human nucleolin (His-tag fusion protein) (human, UniProt P19338 1-710)
T1 construct: nucleolin, human, amplified from HEK293 cDNA into pET-28a; the printed primers run from the start codon to the stop codon; this is read from the printed primers; source: E. coli Rosetta 2(DE3), purified (Ni-NTA agarose)
Experiment: SPR; Biacore T100, 25 °C; one protein immobilised on a CM5 chip (200 RU), analytes at 0-50 nM, 180 s at 10 μl/min; 25 mM Tris-HCl, 500 mM NaCl, 10% glycerol, 1% Triton X-100, pH 8.0
Conditions: both partners purified

T1 sequence (P19338 whole entry, the tested form may be a part): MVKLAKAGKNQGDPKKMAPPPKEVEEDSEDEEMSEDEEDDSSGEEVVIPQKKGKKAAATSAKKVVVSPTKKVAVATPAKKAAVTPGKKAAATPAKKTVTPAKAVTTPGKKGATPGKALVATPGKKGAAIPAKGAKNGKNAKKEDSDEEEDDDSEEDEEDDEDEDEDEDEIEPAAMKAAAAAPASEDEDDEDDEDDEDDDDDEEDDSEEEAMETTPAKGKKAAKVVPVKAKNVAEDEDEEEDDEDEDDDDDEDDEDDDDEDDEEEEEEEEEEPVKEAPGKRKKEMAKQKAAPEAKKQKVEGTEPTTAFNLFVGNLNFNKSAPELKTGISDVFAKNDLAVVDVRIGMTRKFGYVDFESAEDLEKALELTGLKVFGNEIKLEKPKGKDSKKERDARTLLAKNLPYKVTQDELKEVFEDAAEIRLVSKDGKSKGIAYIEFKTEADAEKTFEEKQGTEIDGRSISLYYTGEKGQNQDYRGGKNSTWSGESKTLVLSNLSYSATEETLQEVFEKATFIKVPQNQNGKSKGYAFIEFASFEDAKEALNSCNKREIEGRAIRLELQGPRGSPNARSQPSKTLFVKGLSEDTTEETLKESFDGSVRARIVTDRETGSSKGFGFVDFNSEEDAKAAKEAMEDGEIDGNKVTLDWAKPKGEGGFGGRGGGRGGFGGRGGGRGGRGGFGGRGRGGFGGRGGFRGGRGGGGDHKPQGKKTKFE

B1: human fibrillarin (His-tag fusion protein) (natural protein, UniProt P22087 1-321, looked up)
chain: MKPGFSPRGGGFGGRGGFGDRGGRGGRGGFGGGRGRGGGFRGRGRGGGGGGGGGGGGGRGGGGFHSGGNRGRGRGGKRGNQSGKNVMVEPHRHEGVFICRGKEDALVTKNLVPGESVYGEKRVSISEGDDKIEYRAWNPFRSKLAAAILGGVDQIHIKPGAKVLYLGAASGTTVSHVSDIVGPDGLVYAVEFSHRSGRDLINLAKKRTNIIPVIEDARHPHKYRMLIAMVDVIFADVAQPDQTRIVALNAHTFLRNGGHFVISIKANCIDSTASAEAVFASEVKKMQQENMKPQEQLTLEPYERDHAVVVGVYRPPPKVKN
notes: fibrillarin, human, amplified from HEK293 cDNA into pET-28a; the printed primers run from the start codon to the stop codon; this is read from the printed primers; source: E. coli Rosetta 2(DE3), purified (Ni-NTA agarose)
  binding result: binds
